The values that follow come from publication PMC1810434, “Breakage-Reunion Domain of Streptococcus pneumoniae Topoisomerase IV: Crystal Structure of a Gram-Positive Quinolone Target” (PLoS ONE, 2007).

Substitutions are numbered along the chain they refer to. Numbers in names are those of the source.

The series deals with the molecule itself. In words: crystal structure; hanging drop vapor diffusion at ambient temperature; space group I222; solved by molecular replacement; asymmetric unit of two biological dimers; wild-type data to 2.7 Å, Cys426 data to 3.25 Å.

B1: ParC55, 55.5 kDa N-terminal breakage-reunion domain of Streptococcus pneumoniae topoisomerase IV subunit A (ParC) (domain or fragment)
chain: MSNIQNMSLEDIMGERFGRYSKYIIQDRALPDIRDGLKPVQRRILYSMNKDSNTFDKSYRKSAKSVGNIMGNFHPHGDSSIYDAMVRMSQNWKNREILVEMHGNNGSMDGDPPAAMRYTEARLSEIAGYLLQDIEKKTVPFAWNFDDTEKEPTVLPAAFPNLLVNGSTGISAGYATDIPPHNLAEVIDAAVYMIDHPTAKIDKLMEFLPGPDFPTGAIIQGRDEIKKAYETGKGRVVVRSKTEIEKLKGGKEQIVIIEIPYEINKANLVKKIDDVRVNNKVAGIAEVRDESDRDGLRIAIELKKDANTELVLNYLFKYTDLQINYNFNMVAIDNFTPRQVGIVPILSSYIAHRREVILARSRFDKEKAEKRLHIVEGLIRVISILDEVIALIRASENKADAKENLKVSYDFTEEQAEAIVTLQLYRLTNTDVVVLQEEEAELREKIAMLAAIIGDERTMYNLMKKELREVKKKFATPRLSSLEDTAKALE
notes: ParC (topoisomerase IV subunit A), S. pneumoniae strain 7785, residues 1-490, with the substitution I489L needed for plasmid construction; also called wild-type ParC55; N-terminal ParC domain; source: E. coli, pET29a expression plasmid, purified by Ni2+-NTA chromatography; not shown: His6, C-terminal, kept
B1: the binding result is listed as “binds”.

B2: ParC55 Cys426 (ParC55 with Arg426 changed to Cys) (domain or fragment)
chain: B1 chain with R426C
notes: PDB 2NOV holds the parent (wild-type ParC55); No entry of its own is named for the Cys426 data set; also called ParC Cys426; Cys426 mutant; source: E. coli, purified by Ni2+-NTA chromatography as for wild-type ParC55
B2: the binding result was “binds”.
